This note sets out measurements from publication PMC3335814, “Structure of an Enzyme-Derived Phosphoprotein Recognition Domain” (PLoS ONE, 2012).

In test [1] the target is Pins Linker peptide (residues 427-445), pSer436, TMR-labelled (UniProt Q9VB22). As to the kind of experiment: fluorescence polarisation. The following applies: read from the fitted curve at 20 µM Dlg-GK; parent: est. 0.11; read off a plot. Background: In fluorescence polarisation assays a small probe gives low polarisation when free and higher when bound to something large.

Test [2] concerns the target Pins Linker peptide (residues 427-445), pSer436, TMR-labelled (Drosophila) (UniProt Q9VB22). As to the kind of experiment: fluorescence polarisation; steady state anisotropy of 0.5 µM TMR-labelled Pins peptide (427-445) with increasing concentrations of Dlg constructs; 20 mM Tris pH 8, 100 mM NaCl, 1 mM DTT; nonlinear regression.
In test [3] the target is Pins Linker peptide (residues 427-445), unphosphorylated, TMR-labelled (Drosophila) (UniProt Q9VB22). Described as above.
Test [4] deals with T1, Dlg SH3-GK ΔHook (residues 598-975 without 679-766), as it stands in the fusion (Drosophila, UniProt P31007-5 598-975, Δ679-766).
T1 construct: Existed only joined to m11 on one chain; written apart for the pair seen in the crystal structure; also called Dlg GK^dom and its adjacent SH3 domain; GK^dom; source: E. coli BL21(DE3), purified (NiNTA, anion exchange, size exclusion), as part of the fusion m8
T1 sequence (looked up): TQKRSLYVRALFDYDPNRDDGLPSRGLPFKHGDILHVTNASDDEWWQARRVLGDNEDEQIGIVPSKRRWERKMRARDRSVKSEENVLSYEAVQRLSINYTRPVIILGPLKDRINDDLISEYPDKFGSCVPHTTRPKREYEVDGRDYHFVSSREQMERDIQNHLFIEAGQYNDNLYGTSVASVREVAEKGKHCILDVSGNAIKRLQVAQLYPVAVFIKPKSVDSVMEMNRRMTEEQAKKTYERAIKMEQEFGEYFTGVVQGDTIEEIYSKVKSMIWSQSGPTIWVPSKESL
The test is described as follows: crystal structure; Dlg SH3-GK ΔHook and Pins Linker S436D joined on one chain; vapor diffusion, 2 M NaCl, 0.1 M NaOAc pH 4.6; data to 1.6 Å; one molecule in the asymmetric unit. The following applies: both partners purified.

As to Dlg GK domain (isolated GK^dom) Y831A, the response in test [1] turned out to be 0.017.

Dlg SH3-GK module (domain or fragment): the Kd – broadly, a measure of binding affinity in units of concentration – in test [2] was 300 nM.

As for Dlg GK domain (isolated GK^dom) Y824A, the response in test [1] came out at 0.11.

“ΔHook/Pins^S436D fusion protein (Dlg 598-975 without 679-766, fused to Pins 411-460 S436D) (from UniProt P31007-5 598-975; Q9VB22 411-460)” returned a Kd in test [2] of 14000 nM.

Dlg GK domain (isolated GK^dom) R822A: in test [1], the response was found to be 0.083.

“Dlg GK domain (isolated GK^dom) (domain or fragment)”: the dissociation constant Kd is more than 200000 nM in test [3] and 800 nM in test [2].

For Dlg GK domain (isolated GK^dom) Y855A, the response in test [1] was 0.08.

For “Dlg SH3GK fused to Pins Linker without the phosphomimetic (from UniProt P31007-5 598-975; Q9VB22 411-460)”, in test [2], the Kd was determined as 300 nM.

B1: Pins Linker (residues 411-460) S436D, as it stands in the fusion (domain or fragment, Drosophila, UniProt Q9VB22 411-460, looked up)
chain: DHSASGNQSDGSENSQGRMVRVRRQDMEQLDLIKITPDGKRMQEEKLRAQ
notes: Partner of Inscuteable (Pins), Linker, residues 411-460, phosphomimetic S436D; Existed only joined to m10 on one chain; written apart for the pair seen in the crystal structure; also called Pins^LINKER S436D; Pins^S436D; source: E. coli BL21(DE3), purified (NiNTA, anion exchange, size exclusion), as part of the fusion m8
Regarding B1, the binding result in test [4] is on record as “binds”.
